From PMC10733300, “ANKS1A regulates LDL receptor-related protein 1 (LRP1)-mediated cerebrovascular clearance in brain endothelial cells” (Nature Communications, 2023)

System: iBBB (human iPSC-derived BBB)
Experiment: Aβ(1–40) / Aβ(1–42) transcytosis and paracellular permeability assay, iBBB (transwell)
Details: Cy3-labeled Aβ(1–40) added to the abluminal side, 20 nM, 37 °C, 1 h, fluorescence
Experimental: For iBBBs, iPSC-derived brain endothelial cells (iECs) were dissociated by Accutase, resuspended with hECSR1 supplemented with 10 μM Y27632 and then seeded onto a 24-well Matrigel-coated Transwell at a density of 10^6 cells per cm^2 to complete a confluent monolayer for 24 h. Afterwards, the iPCs, iASs or MEFs were seeded on top of the iEC monolayer culture at a density of 5 × 10^4 cells per cm^2. The iBBBs were further cultured for 12 or 14 days.
For analysis of bottom (apical) to top (basolateral) permeability, 500 μl of medium containing the fluorescent proteins was added to the lower chamber; for analysis of top to bottom permeability, 100 μl medium of the fluorescent proteins was added to the top chamber. Permeability assays were conducted at 37 °C for 1 h. Media from the bottom chamber or the top transwell insert were collected and analyzed by a fluorescence plate reader (Molecular Devices). The rationale for using the indicated final concentrations for each protein was that the levels of diffused or transcytosed proteins were within a detectable range via fluorescence.

Aβ(1-40): Cy3-labeled amyloid beta (1–40) peptide used as fluorescent permeant at 20 nM in the BBB models
increase of permeability in WT iBBB compared to iECs co-cultured with MEFs: 12%
